T1: human C4b (human) (UniProt P0C0L4)
T1 sequence: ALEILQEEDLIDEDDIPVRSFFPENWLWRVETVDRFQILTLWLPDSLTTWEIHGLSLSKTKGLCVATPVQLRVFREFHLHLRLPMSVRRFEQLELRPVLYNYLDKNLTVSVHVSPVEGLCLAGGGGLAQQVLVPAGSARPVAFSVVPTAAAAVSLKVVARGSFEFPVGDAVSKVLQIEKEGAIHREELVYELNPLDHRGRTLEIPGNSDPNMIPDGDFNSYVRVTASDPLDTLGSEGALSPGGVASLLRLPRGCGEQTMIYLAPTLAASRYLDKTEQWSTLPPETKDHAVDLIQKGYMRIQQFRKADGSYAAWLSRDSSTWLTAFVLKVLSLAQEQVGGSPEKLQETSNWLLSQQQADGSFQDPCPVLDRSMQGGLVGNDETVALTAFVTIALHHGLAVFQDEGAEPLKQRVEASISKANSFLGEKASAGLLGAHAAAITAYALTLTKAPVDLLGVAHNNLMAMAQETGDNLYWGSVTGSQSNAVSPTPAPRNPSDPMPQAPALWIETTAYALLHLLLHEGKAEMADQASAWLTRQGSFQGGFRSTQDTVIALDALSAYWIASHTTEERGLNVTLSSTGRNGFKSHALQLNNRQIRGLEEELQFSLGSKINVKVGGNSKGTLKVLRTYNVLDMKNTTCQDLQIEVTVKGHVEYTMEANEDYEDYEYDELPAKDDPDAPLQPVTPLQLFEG

T2: human C4b (human) (UniProt P0C0L5)
T2 sequence: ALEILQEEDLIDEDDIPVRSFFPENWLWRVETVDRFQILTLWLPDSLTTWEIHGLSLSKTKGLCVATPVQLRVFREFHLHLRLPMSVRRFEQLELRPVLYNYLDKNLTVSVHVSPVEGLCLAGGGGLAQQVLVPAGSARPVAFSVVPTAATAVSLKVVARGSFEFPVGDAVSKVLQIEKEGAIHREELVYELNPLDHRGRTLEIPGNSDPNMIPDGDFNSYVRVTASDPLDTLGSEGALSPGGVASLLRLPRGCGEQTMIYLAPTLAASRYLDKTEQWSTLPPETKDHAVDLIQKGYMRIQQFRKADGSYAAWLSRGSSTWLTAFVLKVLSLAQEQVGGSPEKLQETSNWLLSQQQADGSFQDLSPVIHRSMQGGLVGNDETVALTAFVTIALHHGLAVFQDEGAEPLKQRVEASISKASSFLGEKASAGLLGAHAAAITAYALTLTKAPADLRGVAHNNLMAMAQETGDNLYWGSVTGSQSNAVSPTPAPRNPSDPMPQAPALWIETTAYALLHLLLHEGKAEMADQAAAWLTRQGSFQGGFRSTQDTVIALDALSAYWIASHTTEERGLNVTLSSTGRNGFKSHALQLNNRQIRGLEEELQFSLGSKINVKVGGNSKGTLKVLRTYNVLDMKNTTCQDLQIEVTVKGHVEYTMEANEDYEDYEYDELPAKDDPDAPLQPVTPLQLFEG


What was measured:
human C4b (human) [1] = target: T1, human C4b (human)
[2] = target: soluble human C3b (human) (UniProt P01024)
human C4b (human) [3] = target: T1, human C4b (human); remark: listed apart in the source
[4] = target: soluble human C3b (human) (UniProt P01024); remark: listed apart in the source
human C4b (human) [5] = target: T2, human C4b (human)

CFI-HSA wild type (enzyme), sequence (chain): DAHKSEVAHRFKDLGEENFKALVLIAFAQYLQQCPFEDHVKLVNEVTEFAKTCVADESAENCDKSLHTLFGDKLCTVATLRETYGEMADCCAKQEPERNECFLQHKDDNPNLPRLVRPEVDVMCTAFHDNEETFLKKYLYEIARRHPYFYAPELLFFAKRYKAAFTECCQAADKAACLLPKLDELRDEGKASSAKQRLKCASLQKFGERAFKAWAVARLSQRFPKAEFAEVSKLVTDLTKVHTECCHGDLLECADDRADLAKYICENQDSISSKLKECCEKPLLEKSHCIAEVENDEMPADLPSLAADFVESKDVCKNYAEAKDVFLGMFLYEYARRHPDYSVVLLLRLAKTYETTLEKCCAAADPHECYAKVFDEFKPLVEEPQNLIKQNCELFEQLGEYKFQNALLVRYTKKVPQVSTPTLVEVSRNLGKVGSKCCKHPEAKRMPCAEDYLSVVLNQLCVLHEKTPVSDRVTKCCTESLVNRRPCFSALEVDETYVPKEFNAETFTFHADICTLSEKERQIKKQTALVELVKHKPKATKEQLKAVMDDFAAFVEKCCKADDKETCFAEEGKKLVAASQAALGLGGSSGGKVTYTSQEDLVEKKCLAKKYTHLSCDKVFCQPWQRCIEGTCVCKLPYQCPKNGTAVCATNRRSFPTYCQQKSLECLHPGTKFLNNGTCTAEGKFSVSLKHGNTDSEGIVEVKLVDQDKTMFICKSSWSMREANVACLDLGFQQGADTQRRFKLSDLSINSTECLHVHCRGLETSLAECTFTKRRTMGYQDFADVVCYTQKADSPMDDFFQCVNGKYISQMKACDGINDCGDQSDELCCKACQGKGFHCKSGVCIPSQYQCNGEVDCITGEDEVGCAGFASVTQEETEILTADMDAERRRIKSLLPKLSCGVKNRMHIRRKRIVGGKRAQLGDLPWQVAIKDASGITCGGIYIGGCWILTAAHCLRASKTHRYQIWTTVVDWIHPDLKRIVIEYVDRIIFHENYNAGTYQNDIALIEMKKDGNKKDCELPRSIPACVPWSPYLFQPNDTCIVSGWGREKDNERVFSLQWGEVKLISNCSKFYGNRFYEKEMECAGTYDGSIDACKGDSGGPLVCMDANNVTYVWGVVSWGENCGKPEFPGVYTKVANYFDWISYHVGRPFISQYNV

Molecule | C4b Screen Ref Fold (fold of reference) (human C4b (human) [1]) | iC3b Screen Ref Fold (fold of reference) [2] | C4c EC50 (nM) (human C4b (human) [3]) | iC3b EC50 [4] | C4b Screen Ref Fold (fold of CFI-HSA wild type) (human C4b (human) [1]) | iC3b Screen Ref Fold (fold of CFI-HSA wild type) [2] | C4c EC50 (human C4b (human) [3]) | C4b Screen Ref Fold (fold vs CFI-HSA wild type) (human C4b (human) [5]) | iC3b Screen Ref Fold (fold vs CFI-HSA wild type) [2] | C4b Screen Ref Fold (fold of CFI-HSA wild type) (human C4b (human) [5])
CFI-HSA variant A405S (enzyme) | 2.12 | 0.94 | 353 nM | 23.9 nM |  |  |  |  |  | 
CFI-HSA variant D341A (enzyme) | 0.19 | 0.26 | > 1000 nM | 57.2 nM |  |  |  |  |  | 
CFI-HSA variant D420G (enzyme) |  |  | 63.6 nM | 7 nM | 2.71 | 2.53 |  |  |  | 
CFI-HSA variant D425G (enzyme) | 2.18 | 0.7 |  | 13.5 nM |  |  | > 1000 nM |  |  | 
CFI-HSA variant N531G; E457G; E461Q (enzyme) |  |  | 29.3 nM | 5.6 nM |  |  |  | 6.42 | 0.95 | 
CFI-HSA variant N531G; N422K (enzyme) |  |  |  | 5.2 nM |  | 2.43 | 42.6 nM |  |  | 4.68
CFI-HSA variant N531G; P535A (enzyme) |  |  | 53.4 nM | 7.9 nM |  |  |  | 5.6 | 1.53 | 
CFI-HSA variant P535G; D425K (enzyme) |  |  |  | 19.4 nM |  | 0.53 | 865 nM |  |  | 0.1
CFI-HSA variant P535G; E416A (enzyme) |  |  | > 1000 nM | 41.6 nM |  | 0.53 |  |  |  | 0.13
CFI-HSA variant P558A (enzyme) |  |  |  | 20.8 nM |  | 0.87 | 213 nM |  |  | 1.21
CFI-HSA variant P558L (enzyme) |  |  | 472 nM | 12.4 nM |  |  |  | 0.89 | 0.99 | 
CFI-HSA variant Q467K (enzyme) |  |  | 246 nM | 18.7 nM |  |  |  | 3.04 | 0.95 | 
CFI-HSA variant Q467K; F537K (enzyme) |  |  | 615 nM | 12.7 nM |  |  |  | 0.85 | 1.31 | 
CFI-HSA variant Q467R (enzyme) |  |  | 399 nM | 27.1 nM |  |  |  | 0.48 | 0.59 | 
CFI-HSA variant R557K (enzyme) |  |  | 266 nM | 99.9 nM |  |  |  | 3.09 | 0.28 | 
CFI-HSA variant Y408F (enzyme) |  |  | 225 nM | 19.2 nM |  |  |  | 1.88 | 0.61 | 
CFI-HSA variant Y408H (enzyme) |  |  | > 1000 nM | 43.3 nM |  |  |  | 0.05 | 0.82 | 
CFI-HSA variant Y408L-N531G (enzyme) |  |  | 70.5 nM | 10.6 nM |  |  |  | 5.29 | 1.09 | 
CFI-HSA variant Y408L; E416A (enzyme) |  |  |  | 20.8 nM |  | 1.21 | > 1000 nM |  |  | 0.41
CFI-HSA variant Y408L; E457G; N531G; D425K (enzyme) |  |  |  | 4.7 nM |  | 0.58 | 13.5 nM |  |  | 5.1
CFI-HSA variant Y408L; E457G; N531G; P535G; P558S (enzyme) |  |  |  | 9.6 nM |  | 1.39 | 27.9 nM |  |  | 4.34
CFI-HSA variant Y408L; E457G; P535G (enzyme) |  |  |  | 11.7 nM |  | 0.6 | 205 nM |  |  | 1.21
CFI-HSA variant Y408L; E457G; P535G; D425K (enzyme) |  |  |  | 5.2 nM |  | 0.04 | 46.5 nM |  |  | 2.13
CFI-HSA variant Y408L; P535G (enzyme) |  |  |  | 50.9 nM |  | 0.27 | > 1000 nM |  |  | 0
CFI-HSA variant Y408L; P535G; D425K (enzyme) |  |  |  | 19.7 nM |  | 0.56 | > 1000 nM |  |  | 0
CFI-HSA variant Y408N (enzyme) |  |  | 710 nM | 64.2 nM |  |  |  | 0.09 | 0.51 | 
CFI-HSA wild type (enzyme) |  |  | 299 nM | 28.4 nM |  |  |  | 1 | 1 | 
WT; GGSSGG (SEQ ID NO: 6); CR1(ccp15-17) (enzyme) |  |  | 53.1 nM | 31.9 nM |  |  |  | 5.25 | 0.04 | 
WT mouse CFI (enzyme) RSPSASDLPQEELVDQKCLLQKYTHRSCNKVFCQPWQRCIEGTCICKLPYQCPRAGTPVCAMNGRSYPTYCHQKSFECLHPEIKFSHNGTCAAEGKFNVSLIYGRTKTEGLVQVKLVDQDERMFICKNSWSMAEANVACVDLGFPLGVRDIQGSFNISGNLHINDTECLHVHCRGVETSLAECAFTKRRTELSNGLAGVVCYKQDADFPTSLSFQCVNGKHIPQEKACNGVNDCGDQSDELCCKGCRGNASLCKSGVCIPDQYKCNGEVDCITGEDESRCEEDRQQNIPKGLARSAQGEAEIETEETEMLTPGMDNERKRIKSLLPKLSCGVKRNTHTRRKRVIGGKPANVGDYPWQVAIKDGQRITCGGIYIGGCWILTAAHCVRPSRAHSYQVWTALLDWLKPNSQLGIQTVKRVIVHEKYNGATFQNDIALIEMKMHTGKKECELPNSVPACVPWSPYLFQPNDRCIISGWGRGKDNQKVYSLRWGEVDLIGNCSQFYPDRYYEKEMQCAGTRDGSIDACKGDSGGPLVCEDINNVTYVWGIVSWGENCGKPEFPGVYTRVANYFDWISYHVGRSLVSQHNV |  |  | 54 nM | > 500 nM |  |  |  | 6.24 | 0.04 | 

Reference: patent publication US20230038638A1, “COMPLEMENT FACTOR I-RELATED COMPOSITIONS AND METHODS” (published 2023)
